One may read the Kd as a measure of binding affinity in units of concentration.

Consider 9 sequences from patent publication US20060257867.

This series addresses T1, ghrelin (D-enantiomer, rat) (Rattus norvegicus) (UniProt Q9QYH7).
T1 sequence: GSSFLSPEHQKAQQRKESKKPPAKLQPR
Description: pulldown. Particulars: bead assay, active conformation; 37 C.

Turning to “GGAGCUCAGACUUCACUCGUGUGAGGCAAUAAAAACUUAAGUCCGAAGGUAACCAAUCCUACACGUACCACUGUCGGUUCCAC [E3]”, the Kd was below 100 nM.

“GGAGCUCAGACUUCACUCGUGUGAGGCAAUAAAACAUAAGUCCGAAGGUAACCAAUCCUACACGUACCACUGUCGGUUCCAC [B7]” registered a Kd below 100 nM.

Turning to “GGAGCUCAGACUUCACUCGUGUGAGGCAAUAAAACUUAAGUCCGAAGGUAACCAAUCCUGCACGUACCACUGUCGGUUCCAC [E12]”, the Kd is below 100 nM.

“GGAGCUCAGACUUCACUCGUGUGAGGCAAUAAAACUUGUAAGUCCGAAGGUAACCAAUCCUACACGUACCACUGUCGGUUCCAC [B12]” yielded a Kd below 100 nM.

Consider “GGAGCUCAGACUUCACUCGUGUGAGGCAGUAAAACUUAAGUCCGAAGGUAACCAAUCCUACACGUACCACUGUCGGUUCCAC [G2]”, for which the Kd was below 100 nM.

On to “GGAGCUCAGACUUCACUCGUGUGAGGUAGUAAAAAAAAAAAAAAAACAUAAAUCCGAAGGUAACCAAUCCUACACGUACCACUGUCGGUUCCAC [G5]”, for which the Kd was below 100 nM.

Sequence “GGAGCUCAGACUUCACUCGUGUGAGGUAGUAAAAAAAAAAAACGUAAAUCCGAAGGUAACCAAUCCUACACGUACCACUGUCGGUUCCAC [A12]” returned a Kd below 100 nM.

Regarding “GGAGCUCAGACUUCACUCGUGUGAGGUAGUAAAAAAAAAAACGUAAAUCCGAAGGUAACCAGUCCUACACGUACCACUGUCGGUUCCAC [F5]”, the Kd was below 100 nM.

As for “GGAGCUCAGACUUCACUCGUGUGAGGUAGUAAAAAAAAAACGUAAAUCCGAAGGUAACCAAUCCUACACGUACCACUGUCGGUUCCAC [A3]”, the dissociation constant Kd is below 100 nM.
